The values that follow come from patent publication US20220235136A1 (YALE UNIVERSITY, published 2022).

The chains are these.
B1: recombinant human CD93 protein (R&D Systems) (receptor)
chain: ADTEAVVCVGTACYTAHSGKLSAAEAQNHCNQNGGNLATVKSKEEAQHVQRVLAQLLRREAALTARMSKFWIGLQREKGKCLDPSLPLKGFSWVGGGEDTPYSNWHKELRNSCISKRCVSLLLDLSQPLLPSRLPKWSEGPCGSPGSPGSNIEGFVCKFSFKGMCRPLALGGPGQVTYTTPFQTTSSSLEAVPFASAANVACGEGDKDETQSHYFLCKEKAPDVFDWGSSGPLCVSPKYGCNFNNGGCHQDCFEGGDGSFLCGCRPGFRLLDDLVTCASRNPCSSSPCRGGATCVLGPHGKNYTCRCPQGYQLDSSQLDCVDVDECQDSPCAQECVNTPGGFRCECWVGYEPGGPGEGACQDVDECALGRSPCAQGCTNTDGSFHCSCEEGYVLAGEDGTQCQDVDECVGPGGPLCDSLCFNTQGSFHCGCLPGWVLAPNGVSCTMGPVSLGPPSGPPDEEDKGEKEGSTVPRAATASPTRGPEGTPKATPTTSRPSLSSDAPITSAPLKMLAPSGSPGVWREPSIHHATAASGPQEPAGGDSSVATQNNDGTDGQK
notes: Bought soluble protein
B3: IGFBP7 protein (R&D Systems), labelled with a His-Tag Labeling Kit for MST (ligand)
chain: SSSDTCGPCEPASCPPLPPLGCLLGETRDACGCCPMCARGEGEPCGGGGAGRGYCAPGMECVKSRKRRKGKAGAAAGGPGVSGVCVCKSRYPVCGSDGTTYPSGCQLRAASQRAESRGEKAITQVSKGTCEQGPSIVTPPKDIWNVTGAQVYLSCEVIGIPTPVLIWNKVKRGHYGVQRTELLPGDRDNLAIQTRGGPEKHEVTGWVLVSPLSKEDAGEYECHASNSQGQASASAKITVVDALHEIPVKKGEGAEL
modifications: RED-tris-NTA fluorescent dye bound to the His tag
notes: Bought; also called human IGFBP7; not shown: His tag implied by the His-Tag Labeling Kit

Assay [1] concerns the target B3. The experiment in a line: microscale thermophoresis (MST), CD93 titrated against 10 nM labelled IGFBP7.
Assay [2] addresses T1, mouse CD93 on transfected HEK293T cells (mouse, UniProt O89103 23-644).
T1 construct: whole, on cells; also called mCD93
T1 sequence (looked up): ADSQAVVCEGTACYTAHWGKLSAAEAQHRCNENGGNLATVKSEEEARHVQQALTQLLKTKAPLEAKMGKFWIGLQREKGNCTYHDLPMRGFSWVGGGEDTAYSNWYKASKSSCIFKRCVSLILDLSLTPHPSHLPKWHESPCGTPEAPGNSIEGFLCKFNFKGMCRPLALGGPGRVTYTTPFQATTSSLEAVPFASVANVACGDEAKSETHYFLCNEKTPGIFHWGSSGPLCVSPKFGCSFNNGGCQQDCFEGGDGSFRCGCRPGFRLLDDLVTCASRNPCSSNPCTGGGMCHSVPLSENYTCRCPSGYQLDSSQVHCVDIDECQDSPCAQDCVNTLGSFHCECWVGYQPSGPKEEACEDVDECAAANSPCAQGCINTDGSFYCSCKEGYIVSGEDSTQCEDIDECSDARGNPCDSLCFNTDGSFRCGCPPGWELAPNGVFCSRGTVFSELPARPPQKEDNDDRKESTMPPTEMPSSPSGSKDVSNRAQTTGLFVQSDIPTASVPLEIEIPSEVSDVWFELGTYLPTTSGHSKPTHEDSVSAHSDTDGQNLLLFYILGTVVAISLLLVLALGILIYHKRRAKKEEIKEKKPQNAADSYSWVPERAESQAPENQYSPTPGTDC
Briefly: flow cytometry, mouse IGFBP7-Ig on mouse CD93-transduced or control HEK293T cells. On the technique in general: In flow cytometry, cells or beads pass a laser one at a time.

Assay [3] has as its target B1. The experiment in a line: microscale thermophoresis: 10 nM labelled IGFBP7, CD93 titrated from 5.9 uM to 180 pM (FIG. 4E).

In general, EC50 (read off the curve) refers to the concentration that produces a half-maximal response. Regarding B1, the “EC50 (read off the curve)” value in assay [1] is around 50 nM.

B2: Mouse IGFBP7 (Fc-tag), Sino Biological (Fc fusion, UniProt Q61581 26-281, looked up)
chain: SSSDACGPCVPASCPALPRLGCPLGETRDACGCCPVCARGEGEPCGGGAAGRGHCAPGMECVKSRKRRKGKAGAAAGGPATLAVCVCKSRYPVCGSNGITYPSGCQLRAASLRAESRGEKAITQVSKGTCEQGPSIVTPPKDIWNVTGAKVFLSCEVIGIPTPVLIWNKVKRDHSGVQRTELLPGDRENLAIQTRGGPEKHEVTGWVLVSPLSKEDAGEYECHASNSQGQASAAAKITVVDALHEIPLKKGEGAQL
notes: also called mouse IGFBP7-Ig; not shown: Fc tag
Regarding B2, the binding result in assay [2] was “binds”.

In general, Kd refers to the concentration at which binding is half-saturated. On to B3, for which the Kd in assay [3] was 53.1 nM.
